According to patent US12527846B2, “Immunodominant proteins and fragments in multiple sclerosis” (UNIVERSITÄT ZÜRICH, priority 2018, dated 2026):

Assays:
[1] = test system: CD45RA-depleted PBMCs of natalizumab-treated MS patients; assay: RASGRP2 reactivity of peripheral blood-derived memory T cells (thymidine incorporation); assay type: cell-based, human; conditions: n=8 natalizumab-treated MS patients; peptide pools 10 μM or whole protein 0.3 μg/ml, day 7
Method: In order to test reactivity to RASGRP2 in peripheral blood-derived memory T cells, cryopreserved PBMCs (1×10^8 cells) of natalizumab-treated MS patients (NAT; n=8) were thawed and afterwards depleted for CD45RA-expressing cells using magnetic cell sorting (Miltenyi). 2×10^8 CD45RA-depleted PBMCs were seeded per well (10-15 replicate wells per condition) in X-Vivo medium and were either treated with vehicle (DMSO), with CD2/CD3/CD28 beads or pulsed with RASGRP2 peptide pools (final concentration of pool 10 μM) or whole purified RASGRP2 protein (Origene; 0.3 μg/ml). The 15mer-overlapping peptides covering the whole RASGRP2 protein (SEQ ID NO:s 38-98) were organized in 9 peptide pools with 7 peptides per pool covering the sequence of RASGRP2 from N- (pool 1) to C-terminus (pool 9). Thymidine incorporation assay was used to measure proliferation responses to RASGRP2. At day 7 the cells were pulsed with 1 μCi of methyl-3H-thymidine per well (Hartmann Analytic) and harvested after 15 h on a membrane (Tomtec). Incorporation was measured by p-scintillation counting (Wallac 1450, PerkinElmer). The results are shown as dots (mean±SEM). Stimulatory index (SI) was calculated as ratio of peptide or protein stimulation vs. vehicle control. SI values>2 were considered as positive (FIG. 10).

[2] = test system: CSF-infiltrating CD4+ T cells; assay: Recognition of GDP-L-fucose synthase peptides by PHA-expanded CSF-infiltrating CD4+ T cells from 31 CIS/MS patients; assay type: cell-based, human; conditions: three-cluster k-means on patient scores
Method: In order to find out if specific recognition of GDP-L-fucose synthase occurs in CSF-infiltrating CD4+ T cells in patients with different forms of MS (the majority CIS and RRMS), a new protocol was developed to expand fresh CSF-infiltrating CD4+ T cells to high numbers in a single round to minimize variations in the original T cell repertoire. Resting PHA-expanded CSF-infiltrating CD4+ T cells, T cells that are also derived from the CNS compartment, from 31 CIS/MS patients were tested in quadruplicate with the 62 overlapping GDP-L-fucose synthase peptides presented by autologous irradiated PBMCs, as well as with the seven myelin peptides, CEF peptide pool and control beads. All stimulatory indices (Sls; except control beads) were pooled and SI values less than one were treated as having unit value. Cluster k-means analysis was performed to determine the optimal cut-off to differentiate responsive SI values from nonresponsive in this patient population. […] Subsequently, for each patient, all peptides having a median SI (of the quadruplicate wells) greater than 1.455 were identified as positive responses.
Next, patient scores were constructed by calculating the sum of each responsive peptide median SI, weighted by the number of total patients that responded to that peptide. […]
Proliferation was measured 72 h after stimulation by 3H-thymidine (Hartmann Analytic, Braunschweig, Germany) incorporation in a scintillation counter (Wallac 1450, PerkinElmer, Rodgau-Jurgesheim, Germany). The stimulatory index (SI) was calculated as follows: SI=Median (replicates cpm peptide)/Median (replicates cpm without peptide). Proliferation was also measured using a Click-iT™ EdU Flow Cytometry Assay Kit (APC, Molecular Probes, Invitrogen) following manufacturer's instructions. Cells were stained with the following antibodies anti-CD3 (PE-Cy-7, e-Bioscience, San Diego, CA) and anti-TRBV-21 (FITC, Beckman Coulter, Brea, CA) and analyzed by flow cytometry.

B1: RASGRP2: RASGRP2 peptide pools (15mer-overlapping peptides, SEQ ID NOs 38-98, 9 pools) or whole purified RASGRP2 protein (Origene) (protein, listed as Homo sapiens)
chain: AAAAARPAGGSARRWGRPGRCGLLAAGPKRVRSEPGGRLPERSLGPAHPAPAAMAGTLDLDKGCTVEELLRGCIEAFDDSGKVRDPQLVRMFLMMHPWYIPSSQLAAKLLHIYQQSRKDNSNSLQVKTCHLVRYWISAFPAEFDLNPELAEQIKELKALLDQEGNRRHSSLIDIDSVPTYKWKRQVTQRNPVGQKKRKMSLLFDHLEPMELAEHLTYLEYRSFCKILFQDYHSFVTHGCTVDNPVLERFISLFNSVSQWVQLMILSKPTAPQRALVITHFVHVAEKLLQLQNFNTLMAVVGGLSHSSISRLKETHSHVSPETIKLWEGLTELVTATGNYGNYRRRLAACVGFRFPILGVHLKDLVALQLALPDWLDPARTRLNGAKMKQLFSILEELAMVTSLRPPVQANPDLLSLLTVSLDQYQTEDELYQLSLQREPRSKSSPTSPTSCTPPPRPPVLEEWTSAAKPKLDQALVVEHIEKMVESVFRNFDVDGDGHISQEEFQIIRGNFPYLSAFGDLDQNQDGCISREEMVSYFLRSSSVLGGRMGFVHNFQESNSLRPVACRHCKALILGIYKQGLKCRACGVNCHKQCKDRLSVECRRRAQSVSLEGSAPSPSPMHSHHHRAFSFSLPRPGRRGSRPPEIREEEVQTVEDGVFDIHL
- donors responding (SI values>2 positive) [1]: All 8 donors responded

B2: GDP L-fucose synthase (protein, listed as Homo sapiens)
chain: MGEPQGSMRILVTGGSGLVGKAIQKVVADGAGLPGEDWVFVSSKDADLTDTAQTRALFEKVQPTHVIHLAAMVGGLFRNIKYNLDFWRKNVHMNDNVLHSAFEVGARKVVSCLSTCIFPDKTTYPIDETMIHNGPPHNSNFGYSYAKRMIDVQNRAYFQQYGCTFTAVIPTNVFGPHDNFNIEDGHVLPGLIHKVHLAKSSGSALTVWGTGNPRRQFIYSLDLAQLFIWVLREYNEVEPIILSVGEEDEVSIKEAAEAVVEAMDFHGEVTFDTTKSDGQFKKTASNSKLRTYLPDFRFTPFKQAVKETCAWFTDNYEQARK
notes: whole protein 1-321, GenBank AAH93061.1 or UniProtKB/Swiss-Prot Q13630
- patients characterized as high responders [2]: 19.35%
- patients characterized as moderate responders [2]: 19.35%
- patients characterized as nonresponders [2]: 61.3%
